Source: patent US20250243282A1

Key:
[1] = molecular target: Recombinant human Gal3 (rhGal3) (TrueBinding, #QC200361) (human) (UniProt P17931); test: cell-based or functional assay
[2] = molecular target: cynomolgus Gal3 (cynomolgus); test: method not stated (FIG. 20)
For % inhibition of CD62L shedding in this document: test concentration or dose not given here.
For % inhibition of IL-6 secretion in this document: test concentration or dose not given here.
For % inhibition of TNFα secretion in this document: test concentration or dose not given here.

Sequence of Recombinant human Gal3 (rhGal3) (TrueBinding, #QC200361) (human) (P17931 2-250 limits assumed): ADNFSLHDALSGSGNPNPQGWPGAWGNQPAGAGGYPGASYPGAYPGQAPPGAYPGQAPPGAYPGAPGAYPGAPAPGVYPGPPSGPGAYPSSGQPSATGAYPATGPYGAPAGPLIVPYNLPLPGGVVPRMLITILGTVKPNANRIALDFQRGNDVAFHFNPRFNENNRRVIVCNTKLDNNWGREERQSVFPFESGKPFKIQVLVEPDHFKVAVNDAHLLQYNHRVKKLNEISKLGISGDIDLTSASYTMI
Sequence of cynomolgus Gal3 (cynomolgus) (chain, as listed by the source): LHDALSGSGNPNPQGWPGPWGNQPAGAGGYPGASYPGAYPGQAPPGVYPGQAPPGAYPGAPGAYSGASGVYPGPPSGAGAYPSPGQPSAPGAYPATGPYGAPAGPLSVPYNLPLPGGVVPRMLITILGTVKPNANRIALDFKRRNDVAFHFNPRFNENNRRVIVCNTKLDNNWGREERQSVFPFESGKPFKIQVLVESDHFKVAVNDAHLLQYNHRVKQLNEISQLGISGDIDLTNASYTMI

Binder | % inhibition of CD62L shedding [1] | % inhibition of IL-6 secretion [1] | % inhibition of TNFα secretion [1] | Kd [2]
14D11.2D2 (antibody, from another filing, V domains shown) VH: QVQLKESGPGLVAPSQSLSITCTISGFSLSSYGVHWVRQPPGKGLEWLVVIWSDGSTTYNSTLKSRLSISKDNSKSQVFLKMNSLQTDDTAMYYCARHISNYGTMDYWGQGTSVTVS VL: DIQMTQTTSSLSASLGDRVTISCRASQDIRNYLNWYQQKPDGSIKLLIYYTSRLHSGVPSRFSGSGSGTDYSLTIRNLEQEDIATYFCQHFNTLPPTFGGGTKLEIK | 86.2% | – | – | –
F846C.1H5 (antibody, V domains shown) VH: EVQLLESGGGLVKPGGSLKLSCAASGFTFSSYAMSWVRQTPEKRLEWVASISSGGDTYYPDSVKGRFTISRDNARNILYLQMSSLRSEDTAMYYCASYGNSLFDYWGQGTTLTVSS VL: DVVMTQTPLSLPVSLGDQASISCRSSQSLVHNSGNTYLHWYLQRPGQSPNLLIYKVSNRFSGVPDRFSGSGSGTDFTLKISRVAAEDLGVYFCSQSTHVPPTFGGGTKLEIKR | 100% | -49.7% | -162% | –

More lines, now with the values ahead:

% inhibition of CD62L shedding [1] | % inhibition of IL-6 secretion [1] | % inhibition of TNFα secretion [1] | Kd [2] | Binder
34.4% | -71.4% | -181% | – | 847.14H4 (antibody, from a related filing, V domains shown) VH: QIQLVQSGPELTKPGETVKISCKASGYTFTDYGMNWVRQAPGETLKWMGWINTYTGEPTYADDFKGRFAFSLESSASTAYLQINNLKNEDVATYFCARYPMDYWGQGTSVTVSS VL: QAVVTQESALTTSPGETVTLTCRSSTGAVTTSNYANWVQEKPDHLFTGLIGGTNNRAPGVPARFSGSLIGDKAALTITGAQTEDEAIYFCALWYSNHLVFGGGTKLTVL
– | – | – | 5.1 nM | TB006 (antibody, human IgG4 S228P, kappa, V domains shown) VH: QVQLVQSGAEVKKPGASVKVSCKASGYSFTNYYMHWVRQAPGQRLEWMGWIYPGSGNTNYNEKFQGRVTITADTSASTAYMELSSLRSEDTAVYYCSTAPGGFDVWGQGTTVTVSS VL: DIVMTQTPLSLSVTPGQPASISCKSSKSLLHSDGITYLYWYLQKPGQSPQLLIYRMSNLASGVPDRFSGSGSGTDFTLKISRVEAEDVGVYYCAQMLEFPLTFGQGTKLEIKR
